Assay results as given in the DeepSol protein solubility set.

Experiment: soluble on expression in E. coli; label from the status in PepcDB or PDB records

**Q.** Which “soluble on expression in E. coli” value does the source give for “MAHHHHHHMADTQPVPATVTSAHGAHAEAFGESFIVTLSSENLRVQLLSHGAALNSVQVRKPHPAASATASASATAEQDDEWLEVCLGYTNPEEALSADAVIGHTIGRYAGRIANGEFEIANTTYTLAKNFGPHNLHGGPVGFQHQEWKYLLSDGRDETGVAFHLVSPHMDQGFPGELFVTATYSIIKSAPVPTLKYVLQASLSDNTPVDMTVINLTNHAYWNLNGVPRPAAADAVAPLPRSIANHYLQLQSKYFAVTDELSIPNGDMRPVEGTPHDYSALRCVAEGMEATKEEGRDGGGYDDPVALETWDSTLREAALVYSPATKLRMQVCTTNPAIVVYTANHLPADASGSKGQRFQQHSAICLECQYFPNSPNVRAFPSTVLKKGEAYNETTIHAFQFMNADITPEEKLLRRQ” here?
**A.** Its value is “soluble”.

**Q.** With “RVEVGGSGDAAAVLGLGAVLQGQGQGTSPSPSGLRPQPEAALPPLERLPKPVLVQVASRCRRNDSRSPTHRKITRGAVGLFHPQLYLSGGNCIECGNEMMSRGKFERLAGTATAKWHVSIKVLPSGVTLGKWLQQHGLPILQGEPRQWRRPRCPCATSCAARCRRASNRRK” as the sequence, how does the “soluble on expression in E. coli” value read?
**A.** Its value is “not soluble”.

**Q.** For “MGRMNVSMMRYLEGDHFRVLIAVEMGMKNHEVVPLALVSAIAGIHRGGVARTLNDLCKHSLVAFERSKKFDGYRLTIRGYDYLALRALCSREVVGSVGNQIGIGKESDVYVGGDPELNDLCLKFHRLGRTSFRKIKEKRDYHKKRKSASWLYLSRLAAAKEFAFLKALQERGFPVPKAVDVCRHLVVMQLVVGQTLCNVTHVEDAGALYDRLMALIVKMARHGVIHGDFNEFNLIMLEDERIVMIDFPQMVSIDHPNAEYYFDRDVTCVRTFFKRKFDYESEDWPKFDEVERKGNMDVLLEASGFTKKMALDLNKAYDEGDFLAHCEQELRNRQEEDLGEDEDDSDDSKSMEDIQEEPEDLEKDHEELQAQENTVKQQKIVLSQTTRFTDWLSDATNQLEAVDLDALKSEEGYKDIELPPEDFKRPADSENDDENDEDEEEGEEEDADGHVAVEEQVAKVVKKKRVPSGARSVASSAATFTAEDVKRRLALDRKRNKEKIRLKVKGKQSAVGRNRKDNKDVIAEYAGWI”, which “soluble on expression in E. coli” value is on record?
**A.** Its value is “not soluble”.

**Q.** With “MRLCGLLIFLSYIVYVDNAVTANFISDPRSMFPKMVRTKNAFHFLQYFMGTFRRMFRNKTEMIEHFNYYDDQVKGTDCHIQEELDFARFKSYFDRYTRTHYNPEIRIIFAIMTKDSSHMTVEFHVTSQSWFGFEDHFHMIIRAVNDENVGWGVRYLSMAFNC” as the sequence, how does the “soluble on expression in E. coli” value read?
**A.** The value was “not soluble”.

**Q.** For “MSLSKFTEMMKNRRSIYALGENLPISKEEVTALVKEVVRESPTAFNSQTQRVVFLFGDAHKKLWAMTEDALKPLTPAEAFPNTQAKLQGFAAGAGTILFFEDTDIVKNLQDSFPLYADNFPVWSEQATGLTQANVWTALAQENIGANLQHYNPVIDEAVAAEWSIPANWNLRAQMVIGSIEAPAGEKEYMEDSARFKEFNEGGSHHHHHH”, which “soluble on expression in E. coli” value is on record?
**A.** Its value is “soluble”.

**Q.** For “MANEVIKCKAAVAWEAGKPLSIEEIEVAPPKAHEVRIKIIATAVCHTDAYTLSGADPEGCFPVILGHEGAGIVESVGEGVTKLKAGDTVIPLYIPQCGECKFCLNPKTNLCQKIRVTQGKGLMPDGTSRFTCKGKTILHYMGTSTFSEYTVVADISVAKIDPLAPLDKVCLLGCGISTGYGAAVNTAKLEPGSVCAVFGLGGVGLAVIMGCKVAGASRIIGVDINKDKFARAKEFGATECINPQDFSKPIQEVLIEMTDGGVDYSFECIGNVKVMRAALEACHKGWGVSVVVGVAASGEEIATRPFQLVTGRTWKGTAFGGWKSVESVPKLVSEYMSKKIKVDEFVTHNLSFDEINKAFELMHSGKSIRTVVKI”, which “soluble on expression in E. coli” value is on record?
**A.** The value was “soluble”.

**Q.** Which “soluble on expression in E. coli” value does the source give for “MRITLIVLAALSFACTSCWFETGPDRFIYQLSWFCAESSCERGDDLNQFNRAETYGTDFAMSSTSASDLATSATIVVSATLGRDCRLVLDLVLFGHELDESILCFTPNGFELTVTIPDEDPETSSTWVVMAREL” here?
**A.** Its value is “not soluble”.

**Q.** For “GRSDTYDVLANRIENAVEQHRTEQRFWNALSWYQRLVEQELAGVCIIQDGTFVYVNQKLADIFSYDQSELIDESPALLTAEGDGDRLPESLRAADSDELDTFHSKFEGRQANGETRTIEVSGGSIEYDGEPAWIGVLRD”, which “soluble on expression in E. coli” value is on record?
**A.** The value was “not soluble”.

**Q.** Which “soluble on expression in E. coli” value does the source give for “MSLSTCPAACHCPLEAPKCAPGVGLVRDGCGCCKVCAKQLNEDCSKTQPCDHTKGLECNFGASSTALKGICRAQSEGRPCEYNSRIYQNGESFQPNCKHQCTCIDGAVGCIPLCPQELSLPNLGCPNPRLVKVTGQCCEEWVCDEDSIKDPMEEGHHHHHH” here?
**A.** Its value is “not soluble”.

**Q.** With “MFPFGHKGQKIKGTMVVMQKNVLDINSITSVDGIVGTGLDFLGSALDTVTFLASSISIQLISATKADGGKGKVGKATNLRGKITLPTIGAKEEAYDAQFDWDSDFGIPGAFYIKNYMQNEFYLKSLILEDIPNHGTIHFICNSWVYNSKHYKTDRIFFANNTYLPSETPAPLVKYREEELKNVRGDGTGERKEWDRIYDYDVYNDLGDPDKGEKYARPVLGGSALPYPRRGRTGRGKTRKDPNSEKPGDFVYLPRDEAFGHLKSSDFLAYGIKSVAQDVLPVLTDAFDGNLLSLDFDNFAEVRKLYEGGVTLPTNFLSNITPIPIIKELFRTDGEQFLKYPPPKVMQVDKSAWMTDEEFARETIAGLNPNVIKIIEEFPLSSKLDTQAYGDHTCIITKEHLEPNLGGLTVEQAIQNKKLFILDHHDYLIPYLRKINANTTKTYATRTIFFLKNDGTLTPLAIELSKPHPQGEEYGPVSEVYVPSSEGVEAYIWLLAKAYVVVNDACYHQIISHWLNTHAVVEPFVIATNRHLSVVHPIYKLLFPHYRDTMNINSLARKSLVNADGIIEKTFLWGRYSLEMSAVIYKDWVFTDQALPNDLVKRGVAVKDPSAPHGVRLLIEDYPYASDGLEIWDAIKSWVEEYVSFYYKSDEELQKDPELQAWWKELVEVGHGDLKDKPWWQKMQTREELVEASATLIWIASALHAAVNFGQYPYGGLILNRPTISRRFMPEKGSPEYDALAKNPEKEFLKTITGKKETLIDLTIIEILSRHASDEFYLGQRDGGDYWTSDAGPLEAFKRFGKNLEEIEKKLIEKNNDETLRNRYGPAKMPYTLLYPSSEEGLTFRGIPNSISI” as the sequence, how does the “soluble on expression in E. coli” value read?
**A.** Its value is “soluble”.

**Q.** Which “soluble on expression in E. coli” value does the source give for “MSLSIAKNIENDPSKGWVVQKFGGTSVGKFPIKIAVDVAKEYLSTKRVALVCSARSTDTKAEGTTTRLIRATEAALRPAVGSVHDLVRIIETDHVQAARDFIQDVGIQDELIDAFHADCVELEQYLNAIRVLSEVSPRTRDLVIGMGERLSCRFMAAVLKDQGIDSEFIDMSHIIDEQREWRNLDASFYAYLASQLASKVTAVGNKVPVVTGFFGMVPGGLLSQIGRGYTDFCAALLAVGLNADELQIWKEVDGIFTADPRKVPTARLLPLITPEEAAELTYYGSEVIHPFTMSQVVHARIPIRIKNVGNPRGKGTVIFPDTISRHGSATPPHPPKIMPDDISASLANKGATAVTIKDTIMVINIQSNRKISAHGFLASIFAILDKYKLAVDLITTSEVHVSMALYEESDDGNMHEAFVELRRLGTLDILHGLAILSLVGKHMRNTTGYAGRMFCKLAEAQINIEMISQGASEINISCVIDEKMAVKALNVIHKELLEPLALHEVPSQASMLVEKPWLYSAEGHHHHHH” here?
**A.** Its value is “soluble”.

**Q.** Which “soluble on expression in E. coli” value does the source give for “MGSDKIHHHHHHMAEKPISLSQAPAGYSDWLSELKTKIHSAQQRATLAVNQELVLLYWQIGQEILTRQAELGWGAKVVERLAHDLRTAFPDMKGFSPRNLKYMRAFAEAWPDLEFVQALLAQLPWYHQLALLDKLDNTDSRTWYAQKALENHWSRNVLVMHIESGLHQRQGAAITNFAATLPKPQSDLARESIKDPYRFDFLGLTEAAQEREIEHALVQHVTQFLLELGAGFAFVGRQVLMQVGDEEFFIDLLFYHLKLRCYVVIELKTGKFKPEHLGQLSFYMTAIDKQVKTEPDNATIGLLLCKSKDKVVAEYALGDKSQAMGIAEYKLQQALPEVLESNLPSIEQIERELQGEA” here?
**A.** Its value is “not soluble”.

**Q.** With “MGSDKIHHHHHHMEANNGKMERIQEMLRMFGLSSYEAQGFAALVYHGVANADTIASTANIPRTSAYKVMESLVRKGLAKATEGRPRMFKPAKMEEIRDYYEEKLQQLFRDLKELEDNAPSRGEPQLIYTINGSQKVMEKIEEMINLTEHEIMISTPKIIEIRKQMKKPIENAIKRGVRVVFVIPPNKRVPANVIVYRRDGLIATDIVSDQIRALIAGPDLETCGYSDNPMLSMHVYQFINILINKPEIQG” as the sequence, how does the “soluble on expression in E. coli” value read?
**A.** Its value is “not soluble”.

**Q.** With “TLTKHEQDILLKELGPHVDTPAHIVETGLGAYHALFTAHPQYISHFSRLEGHTIENVMQSEGIKHYARTLTEAIVHMLKEISNDAEVKKIAAQYGKDHTSRKVTKDEFMSGEPIFTKYFQNLVKDAEGKAAVEKFLKHVFPMMAAEI” as the sequence, how does the “soluble on expression in E. coli” value read?
**A.** Its value is “soluble”.

**Q.** With “MLARSARLLHSAELAANAIRAASGAPATAAAAEASFPSTDDVAAKTKKTGNRIKTFEIYRFNPEAPGAKPTVQKFDVDLDQCGTMILDALIKIKNEVDPTLTFRRSCREGICGSCAMNIGGQNTLACICKIDSDTSKSTKIYPLPHMFVVKDLVPDMNLFYAQYASIQPWIQKKTPLTLGEKQMHQSVAERDRLDGLYECILCACCSTSCPSYWWNADKYLGPAVLMQAYRWVIDSRDDYATERLHRMHDSFSAFKCHTIMNCTKTCPKHLNPAKAIGEIKSLLTGFTSKPAAEPSAF” as the sequence, how does the “soluble on expression in E. coli” value read?
**A.** Its value is “not soluble”.

**Q.** For “MAHHHHHHMVQVVHRHGERSALINDNKTEICGTLYPCGELTGERVKMVRAIGEFARSRYNDLSLVESPLCPSTQYNSSLVYTRPTHTQRTIQSATAFLHSLFQDDYFYPVAYSVNRTTDMLLSTDAVPSVVGRSWLDNQAVYPGLMEVNAAWFKYVFSWNHTSKLDLTQGSASQNLEQAMLANINAPPRLSPSYNMFHYSAHDTTVTPFAATFGDQGNTTMHPPFAVTSFVALLQDTADASGWYVRLIRSNPVKVASGTYVFRQTGIAVHCFDATGNRYRVSTGICPLDDFRRMVDHSRPAVADGHSAMTHAQYSNMGSPRTIADNKLVPLRCWIYRYACPSKSCPGSYILSAVDHQCYPQTDIPNSSSSEGTSSSDVSSFKKPANWMPRVSSPEKSRHIAADILRGVTNGVTVGAAVRKHDEYRRHC”, which “soluble on expression in E. coli” value is on record?
**A.** The value was “not soluble”.

**Q.** With “MRRAGLGEGVPPGNYGNYGYANSGYSACEEENERLTESLRSKVTAIKSLSIEIGHEVKTQNKLLAEMDSQFDSTTGFLGLCPM” as the sequence, how does the “soluble on expression in E. coli” value read?
**A.** Its value is “soluble”.

**Q.** Which “soluble on expression in E. coli” value does the source give for “MSELMQAILDSEEKHDLRGFISELRQQDKNYLLRNDILNVYAEYCSKCQKPETSYKFSNLSKLIYYTQEIIQEDSNFCFIIRPKIAAQEVYRLTADLDVEPMTVQELLDLRDRLVNKFHPYEGDILELDFGPFYDYTPTIRDPKNIGKGVQYLNRYLSSKLFQDSQQWLESLFNFLRLHNYNGIQLLINHQIQSQQQLSQQVKNALNFVSDRPNDEPYEQFRLQLQTMGFEPGWGNTASRVRDTLNILDELIDSPDPQTLEAFISRIPMIFRIVLVSAHGWFGQEGVLGRPDTGGQVVYVLDQAKNLEKQLQEDAILAGLEVLNVQPKVIILTRLIPNSDGTLCNQRLEKVYGTENAWILRVPLREFNPKMTQNWISRFEFWPYLETFAIDSERELLAEFQGRPDLIVGNYTDGNLVAFLLTRRMKVTQCNIAHALEKSKYLFSNLYWQDLEEKYHFSLQFTADLIAMNAANFVISSTYQEIVGTPDSIGQYESYKCFTMPELYHVVNGIELFSPKFNVVPPGVNENSYFPYTQTQNRIESDRDRLEEMLFTLEHHHHHH” here?
**A.** Its value is “not soluble”.

**Q.** Which “soluble on expression in E. coli” value does the source give for “MSLEPTAPSLTEEDLTEVKKDALENLRVYLCEKIIAERHFDHLRAKKILSREDTEEISCRTSSRKRAGKMLDYLQENPKGLDTLVESIRREKTQNFLIQKITDEVLKLRNIKLEHLKGLKCSSCEPFPDGATNNLSRSNSDESNFSEKLRASTVMYHPEGESSTTPFFSTNSSLNLPVLEVGRTENTIFSSTTLPRPGDPGAPPLPPDLQLEEEGTCANSSEMFLPLRSRTVSREGHHHHHH” here?
**A.** The value was “not soluble”.
